Assay results from patent publication US20240317855A1 (EUREKA THERAPEUTICS, published 2024).

Molecular target: GPC3 (glypican-3) on HEPG2 human liver cancer cells (human, UniProt P51654 25-580)
Assay: cell-based or functional assay

Sequence of GPC3 (glypican-3) on HEPG2 human liver cancer cells (P51654 25-580): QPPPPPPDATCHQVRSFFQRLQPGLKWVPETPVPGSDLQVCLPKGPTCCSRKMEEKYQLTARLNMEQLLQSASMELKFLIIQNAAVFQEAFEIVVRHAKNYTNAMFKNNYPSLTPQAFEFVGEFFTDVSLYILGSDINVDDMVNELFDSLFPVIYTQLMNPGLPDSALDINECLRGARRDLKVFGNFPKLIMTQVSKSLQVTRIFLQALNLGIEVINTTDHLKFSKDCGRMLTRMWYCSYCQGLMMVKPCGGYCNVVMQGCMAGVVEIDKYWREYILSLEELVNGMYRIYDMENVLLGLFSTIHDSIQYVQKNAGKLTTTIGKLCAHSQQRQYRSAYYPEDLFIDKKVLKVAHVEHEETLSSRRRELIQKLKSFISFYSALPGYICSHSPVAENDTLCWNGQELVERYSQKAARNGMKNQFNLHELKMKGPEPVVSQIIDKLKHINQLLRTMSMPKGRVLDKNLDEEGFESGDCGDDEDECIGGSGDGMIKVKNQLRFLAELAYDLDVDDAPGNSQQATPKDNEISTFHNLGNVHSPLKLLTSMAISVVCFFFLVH

B1: anti-GPC3 CSR (chimeric co-stimulatory receptor: anti-GPC3 scFv fused to CD28 transmembrane and intracellular signaling sequences) (other)
chain: QSVLTQPPSVSAAPGQRVTISCSGTRSNIGSDYVSWYQHLPGTAPKLLVYGDNLRPSGIPDRFSASKSGTSATLGITGLQTGDEADYYCGTWDYTLNGVVFGGGTKLTVLGSRGGGGSGGGGSGGGGSLEMAQVQLVESGGGLVQPGGSLRLSCAASGFTFSSYAMSWVRQAPGKGLEWVSVIYSGGSSTYYADSVKGRFTISRDNSKNTLYLQMNSLRAEDTAVYYCARTSYLNHGDYWGQGTLVTVSSAAAIEVMYPPPYLDNEKSNGTIIHVKGKHLCPSPLFPGPSKPFWVLVVVGGVLACYSLLVTVAFIIFWVRSKRSRLLHSDYMNMTPRRPGPTRKHYQPYAPPRDFAAYRS
specific killing of HEPG2 (AFP+/GPC3+) target cells by T cells expressing anti-AFP caTCR-1 (caTCR-1-0 or caTCR-1-TM5) and the anti-GPC3 CSR; Cytox 96 LDH assay, E:T 2.5:1, 16 hr: 55 to 65%
